According to publication PMC11131964, “Enantioselective transformation of phytoplankton-derived dihydroxypropanesulfonate by marine bacteria” (The ISME Journal, 2024):

Tests used:
[1] = molecular target: HpsP from Dinoroseobacter shibae DFL 12 (S-DHPS dehydrogenase) (Dinoroseobacter shibae DFL 12) (UniProt A8LJR6); experiment: crystal structure; DsHpsP alone, crystallised at 18°C in 0.2 M sodium formate, 18% PEG 3350; 2.3 Å; oligomer seen in the asymmetric unit
[2] = molecular target: T1, RpHpsP (S-DHPS dehydrogenase HpsP, SPO0596) (Ruegeria pomeroyi, UniProt Q5LVU9); experiment: SPR (Biacore T200, CM5 chip); also NADH formation assay; format: binding
T1 sequence (Q5LVU9 1-332): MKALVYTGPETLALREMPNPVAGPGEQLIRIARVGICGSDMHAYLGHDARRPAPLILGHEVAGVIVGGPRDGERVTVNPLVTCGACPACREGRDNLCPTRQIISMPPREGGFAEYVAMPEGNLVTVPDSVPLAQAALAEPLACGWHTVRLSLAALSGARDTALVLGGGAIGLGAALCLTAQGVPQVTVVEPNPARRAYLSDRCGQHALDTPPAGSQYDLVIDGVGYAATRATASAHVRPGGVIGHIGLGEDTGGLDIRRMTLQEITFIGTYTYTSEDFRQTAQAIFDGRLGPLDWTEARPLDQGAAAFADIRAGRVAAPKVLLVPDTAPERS

[3] = molecular target: T2, RpHpsN (R-DHPS dehydrogenase HpsN, SPO0594) (Ruegeria pomeroyi, UniProt Q5LVV1); experiment: SPR (Biacore T200, CM5 chip); also NADH formation assay, Km […]; format: binding
T2 sequence (Q5LVV1 1-435): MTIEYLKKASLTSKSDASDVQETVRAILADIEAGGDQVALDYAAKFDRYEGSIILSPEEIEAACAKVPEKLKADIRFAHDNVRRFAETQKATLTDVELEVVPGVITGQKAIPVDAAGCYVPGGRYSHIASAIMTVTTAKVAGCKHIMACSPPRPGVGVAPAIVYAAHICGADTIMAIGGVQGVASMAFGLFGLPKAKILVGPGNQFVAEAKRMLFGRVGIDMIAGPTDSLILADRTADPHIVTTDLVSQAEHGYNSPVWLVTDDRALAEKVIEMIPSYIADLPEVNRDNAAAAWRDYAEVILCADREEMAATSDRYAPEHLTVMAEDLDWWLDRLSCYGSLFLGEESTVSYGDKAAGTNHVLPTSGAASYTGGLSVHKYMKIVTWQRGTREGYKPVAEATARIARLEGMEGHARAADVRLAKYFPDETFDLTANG

[4] = molecular target: T3, RpHpsO (R-DHPS dehydrogenase HpsO, SPO0595) (Ruegeria pomeroyi, UniProt Q5LVV0); experiment: as above; format: binding
T3 sequence (Q5LVV0 1-253): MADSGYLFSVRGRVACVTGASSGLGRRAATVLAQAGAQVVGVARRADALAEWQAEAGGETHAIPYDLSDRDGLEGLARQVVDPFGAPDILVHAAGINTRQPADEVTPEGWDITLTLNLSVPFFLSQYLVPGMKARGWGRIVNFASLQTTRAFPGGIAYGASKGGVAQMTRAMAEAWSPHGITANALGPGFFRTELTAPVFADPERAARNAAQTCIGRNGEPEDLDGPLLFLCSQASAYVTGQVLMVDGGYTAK

[5] = molecular target: the molecule itself; experiment: crystal structure; RpHpsN alone, crystallised at 18°C in 0.1 M Tris pH 7.5, 1.1 M ammonium sulfate; 2.9 Å; oligomer seen in the asymmetric unit
[6] = substrate: N[C@H](CO)Cc1c[nH]cn1; experiment: Michaelis-Menten kinetics of purified enzyme (Km); format: biochemical, Escherichia coli
[7] = molecular target: the molecule itself; experiment: crystal structure; RpHpsO alone, crystallised at 20°C in 0.1 M sodium citrate pH 5.4, 0.8 M sodium formate; 1.7 Å; oligomer seen in the asymmetric unit
[8] = substrate: OC[C@@H](O)[C@@H](O)[C@H](O)[C@@H](O)CO; experiment: Michaelis-Menten kinetics of purified enzyme (Km); format: biochemical, Bacillus subtilis

Molecule “HpsP from Dinoroseobacter shibae DFL 12 (S-DHPS dehydrogenase) (from UniProt A8LJR6 1-512) (enzyme)” has a stoichiometry N [1] of 4.

With `O=S(=O)(O)C[C@@H](O)CO` [S-DHPS] the Kd [2] was 740 µM.

Work on `O=S(=O)(O)C[C@H](O)CO` [R-DHPS] yielded a Kd [3] of 860 µM and a Kd [4] of 330 µM.

B1: HpsN from Ruegeria pomeroyi DSS-3 (R-DHPS dehydrogenase) (enzyme)
chain: MTIEYLKKASLTSKSDASDVQETVRAILADIEAGGDQVALDYAAKFDRYEGSIILSPEEIEAACAKVPEKLKADIRFAHDNVRRFAETQKATLTDVELEVVPGVITGQKAIPVDAAGCYVPGGRYSHIASAIMTVTTAKVAGCKHIMACSPPRPGVGVAPAIVYAAHICGADTIMAIGGVQGVASMAFGLFGLPKAKILVGPGNQFVAEAKRMLFGRVGIDMIAGPTDSLILADRTADPHIVTTDLVSQAEHGYNSPVWLVTDDRALAEKVIEMIPSYIADLPEVNRDNAAAAWRDYAEVILCADREEMAATSDRYAPEHLTVMAEDLDWWLDRLSCYGSLFLGEESTVSYGDKAAGTNHVLPTSGAASYTGGLSVHKYMKIVTWQRGTREGYKPVAEATARIARLE
notes: HpsN, R-DHPS dehydrogenase (sulfopropanediol 3-dehydrogenase) of the aldehyde dehydrogenase superfamily, Ruegeria pomeroyi DSS-3, locus tag SPO0594; Wild type; Val218-Gly225 and Thr348-Leu374 lack electron density in the crystal structure; also called RpHpsN; SPO0594; source: E. coli BL21(DE3), pET28a, purified (HisTrap HP, Superdex 200 gel filtration)
In the case of B1, the “stoichiometry N” value [5] is reported as 4.

B2: L-histidinol dehydrogenase (Escherichia coli K-12) (protein)
chain: SFNTIIDWNSCTAEQQRQLLMRPAISASESITRTVNDILDNVKARGDEALREYSAKFDKTTVTALKVSAEEIAAASERLSDELKQAMAVAVKNIETFHTAQKLPPVDVETQPGVRCQQVTRPVASVGLYIPGGSAPLFSTVLMLATPASIAGCKKVVLCSPPPIADEILYAAQLCGVQDVFNVGGAQAIAALAFGTESVPKVDKIFGPGNAFVTEAKRQVSQRLDGAAIDMPAGPSEVLVIADSGATPDFVASDLLSQAEHGPDSQVILLTPAADMARRVAEAVERQLAELPRAETARQALNASRLIVTKDLAQCVEISNQYGPEHLIIQTRNARELVDSITSAGSVFLGDWSPESAGDYASGTNHVLPTYGYTATCSSLGLADFQKRMTVQELSKEGFSALASTIETLAAAERLTAHKNAVTLRVNALKEQA
Molecule B2 has a Km [6] of 9.37 ± 3.63 mM, a kcat [6] of 0.042 ± 0.022 s⁻¹ and a kcat/Km [6] of 4 ± 2 M⁻¹ s⁻¹.

B3: HpsO from Ruegeria pomeroyi DSS-3 (R-DHPS dehydrogenase) (enzyme)
chain: MADSGYLFSVRGRVACVTGASSGLGRRAATVLAQAGAQVVGVARRADALAEWQAEAGGETHAIPYDLSDRDGLEGLARQVVDPFGAPDILVHAAGINTRQPADEVTPEGWDITLTLNLSVPFFLSQYLVPGMKARGWGRIVNFASLQTTRAFPGGIAYGASKGGVAQMTRAMAEAWSPHGITANALGPGFFRTELTAPVFADPERAARNAAQTCIGRNGEPEDLDGPLLFLCSQASAYVTGQVLMVDGGYTAK
notes: HpsO, R-DHPS dehydrogenase of the short chain dehydrogenase/reductase family, Ruegeria pomeroyi DSS-3, locus tag SPO0595; Wild type; also called RpHpsO; SPO0595; source: E. coli BL21(DE3), pET28a, purified (HisTrap HP, Superdex 200 gel filtration)
In the case of B3, the “stoichiometry N” value [7] is reported as 4.

B4: D-sorbitol dehydrogenase (Bsubs1_010100003458) (Bacillus subtilis subsp. subtilis str. 168) (protein)
chain: THTVPQNMKAAVMHNTREIKIETLPVPDINHDEVLIKVMAVGICGSDLHYYTNGRIGNYVVEKPFILGHECAGEIAAVGSSVDQFKVGDRVAVEPGVTCGRCEACKEGRYNLCPDVQFLATPPVDGAFVQYIKMRQDFVFLIPDSLSYEEAALIEPFSVGIHAAARTKLQPGSTIAIMGMGPVGLMAVAAAKAFGAGTIIVTDLEPLRLEAAKKMGATHIINIREQDALEEIKTITNDRGVDVAWETAGNPAALQSALASVRRGGKLAIVGLPSQNEIPLNVPFIADNEIDIYGIFRYANTYPKGIEFLASGIVDTKHLVTDQYSLEQTQDAMERALQFKNECLKVMVYPNR
Work on B4 yielded a Km [8] of 32.35 ± 3.59 mM, a kcat [8] of 0.027 ± 0.001 s⁻¹ and a kcat/Km [8] of 0.83 ± 0.045 M⁻¹ s⁻¹.
